Measurements taken from a protein production outcome set (Wang et al. 2014).

Assay: label from the status in PepcDB records
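Note: failed if final PepcDB status was selected cloned or expressed and not failed if soluble or beyond.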

| Sequence | protein production |
| --- | --- |
| MAELFIPDEPIIEVTAVLSAILILVLVLPFKVRIVEENLEAFFFIMGLLGVATIYYYGILPTPDSLIGLFIKAFKTPLAIAHVGPIPIGIVQAVVFFGLVFYFFHKHIYSILASTMEKVGIPVFAFILTFLLGLISSVISVIVTAVILAEIAAALNISRERKVKYVVYASFAVGIGAALTPLGEPLSTIAISKLNAHFTYLIDILGVYIVPGIAVSAVAAAYSLRGEVYREGLVKFVYEESINEILLRGFRVFLFVAALELLGASFTPMVKWYFAQLPSWALYWINTISAVVDNATLTAAEMGPFLTEEQIRSALMSLLISGGMLIPGNIPNIVAAGRLRITMNEWARVGVPFGIALLLAYFIVIEVLDIHITLSF | failed |
| MIKLIVSDLDETLVGPDGNVSEENIEAIKKATQKGVKFVPNTGRGFESVQPLLETLGLKGKANEFVISYNGGVIVENQNFDVIQANAFSFEQATQIFDITKQHLENSTHIYTLNDVYVFNEVEEDNEYIRSRGVRTIRFEHDNLDTLKDEPIFKIITMNPDFNKRKQIKAEVLDKVNFDVNATFSSDRYTEFNLKGVDKGQASLELGRHLGIKADEIMALGDNNNDVAMLKSVGLPVVVSNASASAKANAKYIAKGNYETGVAEAINKFVLGE | failed |
| MTAMMTILGPVLMGAAFGFLLQRGKVTNCNVIENQFRLRDFTVLKVMGTAIVVGGIGVLLLVDTGNTKYYVKDANMLAIALGAALFGIGMVVYGYCPGTALGAIATGSIHALVGALGMVAGAILYALSFDWLKAHVLNVWALGKVRLPDVTNIPDIIWFAALAVGAGLFFWWIESVEAEQKRM | failed |
| MVNPIATGILVLAALYFARSILMPLAFSLFVIALAWPIQMALQRRIPRLAALLITLLLVVLVIVIVGSAIVWGLGELSQWLFYNTGRLQAIYASWTDWLEGHGIAIVSPLGELFSISRLVGLTHSLVTRLNSVAGFAVLTFIFVMLGLLEAEDLQRRLRSSLAQPQGEMLLHIGREIAGKIRRFMVVRSLACILTGLVVWAFTLVAGLELASAWAAIAFALNYIPFIGPLMATIFPTLFAIAQSGSWQLALIVFVGLNVIQFAIGSYLEPFLTGASLAISPFAVMFAVFFWSFMWGVPGAFIGVPILIVVVTWCAHEQSTRWIATLLSGGRQST | failed |
| MTEHRPAIELEEIPTLLERIEGYKGRSRLTQLAIKLNLLIFIRSSELRFARWSEIDFKSGLWVIPEQREAIKGIKHSDRGAKMRRKHYVPLCEQALVILGELKDLTYDVNGDDGFILTGCYDAMKPMSENTINKALRKMGYDTKTDLCGHGFRTLACSALIESGIWPEDVVELQMSHMEKNNVRAAYTHKAKHLEQRRLMLQWWADFLDANGSGMVRPFEFAQGATQYLEHHHHHH | failed |
| MKDSAQNFSTEKTGLKPVIRKIYDCLFDSYGPQGWWPLTELREAEGTNPTKTGSVQGYHPADYTYPQTRNQRFEIICGALLTQNTSWIQVEKALLNLKDLLSLKQINSFSPETIISLDTEILKEAIRPAGYYNQKAMRLKNLACWFLELENRIPARKELLSLKGVGPETADSILLYAFKQPSFVVDAYTKRIVTNLGLADEKAGYNEIKALFEENLPEDTTVYQEYHALLVEHAKRYYQKKSIRTNDIILKHVF | failed |
| MACSRFERQNMFKLCLDFTQKRAPMSQKQPINLVLSGGGTRAIGHLAIISALLERGFEIRAISGSSGGAIVGSLLASGKSPKECYDLLLKTNFVRLFAFKMSQGGLFHLKRGEAYLEKILGIKEFSELSLPLYVCVVDLKEGRPFFLSEGNIAKAVIASSSISPFMRPVEMEGRMGADGGIMNNLPIEPFLEENLPIIGINVNPNRPFHSHSMVSIAKRALFLQFYSNILERSKLCSLYLEPSGIDAYTIYDLKSLESVYNLCQEWCETNLDALIGDVPLHVLRP | failed |
| MKESSTLLQNLARSLPRLNMGILLGLALLLFATLYWTLERLFDEQNSNVRLHFAQLMENIQEQELFLKRLAARHSIDALSLDAPHHLNLQAFPPTAGQQSPFATPFSLSLSPQQPAAGELPRVFALGLQLSSFYSAFWSGSQHVAPRTFVFKTFGHFDISHPEGNTAPDIGVADQVLHQQLVKSDGFADHQIHWQQYRPPASEALPTRFLAYINLHEPAPPLDVQGGNDWSVVASLLSLDDLNHLEHTRHWSIYDDFTLIEPSGTALTGDPAPADVLGEGLNFGLQGMIVKVTSQTPQLWTGLYAISYRNYLDYALWAMLSLLALGVGSIACGWAASRWYRNKVVVPAQRAQQCLNESEDFNRVVIDTVPSGLCVVSRDNLQVILQNRQAEQWQGTAQLLSRLAQDRSLIDGGETSLDIDGRYLQVEFVSTRYQRQDVLVCTFNDVTRHVEDARALDRARRSADAANAAKTLFLATMSHEIRTPLYGVLGTLELLGLTRLDSRQSDYLQTIQRSSSTLFQLISDVLDVSRIEAGQMSIDPLEFCPLDMLEDVLHAHAASAQRRGLLFYACIDPNLPDLLLGDAARISQILNNLLSNAIKFTESGRVVLRVRLLELRDQQARIEWQVTDTGIGISAQQQPQLFVPFFQVRDASNEAGAGLGLAICERLCQMMGGQMQVTSEPGLGSSFSLRLTLRCLPGGLPPLLPWPEGSPVYVRAPVPELLKNTCDWLGRLGVPAHPPPPGWSDEPQTGVLIDMLPRDGLASWPGPCVSAVSGGGSGRLPQATSWQVDAHDIRAIAQAAVLAHQGLPLYQAQHRAGRMGQLNLRILVAKHSPINQAIIKEQLQALGCQVTLSANGKQALEHWQPQRFDIVITDVNMPLMNGYELARELRRRDPQLPIIGVTANALREEGIRCLAAGMNTWIVKPMNLQTLRGHLSKLCPTSTATAAPSIPPAAPSRPPPDTAQGDRIQVTEKMRPLFLSTMHEDLRRLAEALDSGAGKIAAARLHSIAGAMGAVQAAPLAKACAELECRLLEGALTADLQAQARQLMQRLSRLLLPLE | failed |
| MPKLPPLSLYIHIPWCVQKCPYCDFNSHAQKSDIPEQDYIYHLLQDLQADLQRFKDSIQQRKLHSIFIGGGTPSLFSAESIAYLLKEIKKQIDFEDNIEITLEANPGTVEAERFKGYVSAGIMRISMGIQSFNDDKLQRLGRIHNAAEAKSAVNLAKVSGLKSFNLDLMHGLPNQTLEEALDDLRQAIELSPPHISWYQLTIEPNTMFAYRPPKLPDDDALWDIFEQGHQLLTMAGYQQYETSAYAKAGFQCKHNLNYWRFGDYLAIGCGAHGKLTFPTGEITRFSKTKHPKGYLRGEYLYEEKNVPKIDRPFEFFMNRFRLLEAVPKQEFEDYTGLSQSAVKNQIDFAIQQNYIVENADSWQITEHGKLFLNELLELFLTEELEHHHHHH | not failed |
| MMNLALQQRISELGPWFQNMRFGEIETAPDHFLGDYPAFKWEGFKHVVPKDLEGCSVLDIGCNAGFYALEMKRRNAGRVLGIDSDPRYLEQARFAADHFGLDVEFRQMSVYEVSKLGERFDLVLFMGVLYHLRHPLLALDLLYEHVVADLMLFQCLQRGEERIAKLEEDYDFSEWKIFDRSDFPKLFFVEERFAADPTNWFIPNKAAVEAMLRSSGFVIEANPEREVYLCRRGRRPYKVEPPPG | failed |
| MENLKNVAPIEDFNWDAYENGEAVTSASHEDLEKAYDGTLNKVNDREVVDGTVIAMNKREVVVNIGYKSDGIIPLNEFRYNPDLKVGDTVEVYIENQEDKKGQLVLSHRKARATRSWDRVNAALENEEIIKGFIKCRTKGGMIVDVFGIEAFLPGSQIDVKPIRDYDVFVGKTMEFKVVKINQEFKNVVVSHKALIEAELEQQKKEIIGKLEKGQVLEGTVKNITSYGVFIDLGGVDGLIHITDLSWGRVSDPKEVVELDQKLNVVILDFDDEKKRIALGLKQLTPHPWDALDTDLKVGDKVKGKVVVMADYGAFIEIATGVEGLIHVSEMSWSQHLRSAQDFMKVGDEVEAVVLTLDREERKMSLGIKQLKQDPWETIEEKYPVGSKHTAKVRNFTNFGVFVEIEEGVDGLIHISDLSWTKKVKHPSEFTQIGADIEVQVLEIDKENRRLSLGHKQLEENPWDVFETVFTVGSVHEGTIIEMLDKGAVVALPYGVEGFATPKHLVKEDGSQAQLDEKLEFKVIEFNKDAKRIILSHSRIFEDVAKAEERAEKKAASGAKKSSNNKREDAPMIQNQAASTTLGDIDALAALKEQLEGKKLEHHHHHH | not failed |
| MQKNFSVVKKYVNLILDIVLGILGVFLLVFMASYLVDLATYLMKPMTPDNFSVIMQEIISFFMLFEFIMMILRYIQEGHHIPIRYLILICLTAILRQLMVAHGDGLQTLLLSLSILLLVVVLFILGLNGSKFYTLGKAKVEEDHEQDFHH | failed |
| AGVSDTAASVCITITAPSKAWNIAGLKCAQIIFSNPSDAEHWQQLSPVIKDGASTLGLIAAEAAYRYGTDFLNQEVAYLKNNHDFLLHEIPKRIPGAKITPMQATYLMWIDFRDTTIEGSPSEFFIEKAKVAMNDGAWFGEDGTGFCRLNFATSREVLEEAIDRMAKAVSHHT | failed |
| MAEDFSVVVLASDLGIDARPFLTRSDDVDEQENWHDCPQYLGDEDFSDLDLLQFFTLQGLDRSGNRIFRIVGKYFPARVVSAERLKKYISQKISNQCPEGPLCLVYMHSTVQKDDNSPGITILRWIYEDLPSDIKDRLQLVYFIHPGLRSRLVIATLGRLLLSGGLYWKIKYVSRLQYLWEDIKKGEVEIPDFVKNHDNVLEHRPLTDYGIEPDPFQLSEVQSSSFSLNRYENRWVS | failed |
| MGSVVHAEITEIKPFELRVNFGNSFRGRIHITEVLVNDASTSDEPFAKFRVGQSISARVVAKPCHTDIKKTQLWELSVKP | not failed |
| MNMTAGRRAALTREQASSETMTMESSAYGEAVRAVRTGEISADEAANQLIDRMTEGEVLGLLDGDSSRWVLPFIPALLDRRPFVAGAVSRLGIPGIRFSDGGRGVVIGASTAFPVTIARAATWDPSLEERVGIAIGLETRARGANYSASVCVNLLRHPAWGRAQECYGEDPVLTGRMGSALTRGVRLHVMACVKHFALNSMENERFEVDVAVDEHALHEVYLPHFKAVVDAGADSVMSSYNRVRGEYMDVNRALLTDVLRREWGFSGFVTSDWVFGTHDAVASLEAGMDVEMPLRLLRARELPAALRNGVLARATVLQSARRVLRTCVEHSANRELAAPTRAVIASPAHRALAHQVAAESIVMLKNETVGAAPLLPLAPTIQHLAVIGRLAAQGNLGDHGSSRVRPPSTVSPLQGLREALPGVLISTTTGRDERRAAAMAAAAEMAIVVVGLDQHDEGESVVTGGVDVGVIGRTFGSGPLRQVLIGLAHLASRFVRGGDRSSLNLRPSDERLIQAVVAANPRTVVVLVSGSAILTEAWRDRVPALLLAWYGGMEGGRALASVLTGSEEPGGRLPFVLPTDAAHLPFFDSAAKSVVYDAQWGQRRLDGEGHRPAYPFGFGLSYTTLEHRLIDHTLDSSGGNANVHVTNKGHRKGSTVVQVYAADVSLRRPVAQLLGFRKVTLQPGAETTVRVVLDAGPTLQRDSTTRRWSPRSGVWALQASQHSPDSWENAVRLRRTEGLIDQEGTSDVKPA | failed |
| PGAPSTVRISKNVDGIHLSWEPPTSPSGNILEYSAYLAIRTAQMQDNPSQLVFMRIYCGLKTSCTVTAGQLANAHIDYTSRPAIVFRISAKNEKGYGPATQIRWLQGNSK | not failed |
| MQLAINKIYRRIFISMDTGVSDHGIEIIGVDPIPGTSRIMGPWKMTVFWSMASASALTPLIGYLLYPLGLIDMLIAISIAFLIGFVPVGIFSEMGRTIPVPAMIISRKTLGYASSSVMSLIFTFVNLGWFGLNDITGGLILASVTSSSPIIWISFMAIVQIMLVLFGAKYLEKFYRYTAILLVFSYGILTYLLFRVYRPDMYAVLHPSTAVNWGSAIGLVLAFSILAWAYKVSTISRFARKREAGEPALERSGFFMAPSIGIIVPVYVMGSLGLISEAAAENWNLAAVRFSGLGSIGGAVAIIASIGASLAIIHTNSMNLYPATADLLSAIEGLFNKRLRKFAQPISTAILGTLGAVLAYAGILNYASGFLNLSGSIIFPFTFVLIADWFMMNRHSANSADFYSIPKNGLGNVNLAGISGLIVGVILNLIHINLLNALFLYVPQDIFGSLAGTAVFILVLKAVQKKQAAQEENRSDTVAE | failed |
